Square brackets hold non-standard residues; d marks the D form. Ends that are not written are not given here. hArg = N=C(N)NCCCC[C@H](N)C(=O)O; Nle = CCCC[C@H](N)C(=O)O; Aib = CC(C)(N)C(=O)O

The target of assay [1] is T1, wild-type human PTH/PTHrP receptor (hP1R-WT) (human, UniProt Q03431 27-593).
T1 construct: whole, on cells; HKRK-B28 cells express ~280,000 receptors per cell; also called PTH-1 receptor; PTH-1R
T1 sequence (looked up): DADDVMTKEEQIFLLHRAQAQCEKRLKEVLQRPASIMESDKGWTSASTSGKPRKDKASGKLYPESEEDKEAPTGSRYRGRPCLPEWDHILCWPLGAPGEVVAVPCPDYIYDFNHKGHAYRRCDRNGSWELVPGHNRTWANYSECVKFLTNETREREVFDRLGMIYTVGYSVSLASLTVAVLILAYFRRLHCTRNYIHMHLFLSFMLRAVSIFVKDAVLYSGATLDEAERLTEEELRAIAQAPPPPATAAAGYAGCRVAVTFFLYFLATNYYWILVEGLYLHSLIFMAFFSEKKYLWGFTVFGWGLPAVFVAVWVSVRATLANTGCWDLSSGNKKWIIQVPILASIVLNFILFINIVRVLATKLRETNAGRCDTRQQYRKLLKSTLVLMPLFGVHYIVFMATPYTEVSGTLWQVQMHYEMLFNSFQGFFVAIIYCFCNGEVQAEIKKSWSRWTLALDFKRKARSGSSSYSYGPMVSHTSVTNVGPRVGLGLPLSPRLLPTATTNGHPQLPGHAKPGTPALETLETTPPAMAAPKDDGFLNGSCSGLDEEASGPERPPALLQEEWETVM
The experiment in a line: competition binding on HKRK-B28 cells. As to the method:
Competition Binding. Binding reactions were performed with HKRK-B28 cells or in COS-7 cells in 24-well plates. The cells were rinsed with 0.5 mL of binding buffer, and then treated successively with 100 μL binding buffer, 100 μL of binding buffer containing various amounts of unlabeled competitor ligand, and 100 μL of binding buffer containing ca. 100,000 cpm of ¹²⁵I-[M]PTH(1-21) or ¹²⁵I-[Aib^{1,3},M]PTH(1-21)} (ca. 26 fmol; final volume=300 μL). Incubations were 4 to 6 h at 4° C., at which time near equilibrium conditions were attained. Cells were then placed on ice, the binding medium was removed, and the monolayer was rinsed three times with 0.5 mL of cold binding buffer. The cells were subsequently lysed with 0.5 mL […] and counted for radioactivity. For each tracer and in each experiment, the non-specific binding was determined as the radioactivity that bound in the presence of the same unlabeled peptide at a concentration of 1 μM, and was ˜1% of total radioactivity added for each tracer. The maximum specific binding (B₀) was the total radioactivity bound in the absence of competing ligand, corrected for nonspecific binding, and for each tracer, ranged from 8% to 20% of the total radioactivity added. Nonlinear regression was used to calculate binding IC₅₀ values (see below). […]

The target in assay [2] is T2, truncated human P1R deleted for residues (24-181) (hP1R-delNt) (human, UniProt Q03431 182-593).
T2 construct: whole, on cells; also called delNT receptor
T2 sequence (looked up): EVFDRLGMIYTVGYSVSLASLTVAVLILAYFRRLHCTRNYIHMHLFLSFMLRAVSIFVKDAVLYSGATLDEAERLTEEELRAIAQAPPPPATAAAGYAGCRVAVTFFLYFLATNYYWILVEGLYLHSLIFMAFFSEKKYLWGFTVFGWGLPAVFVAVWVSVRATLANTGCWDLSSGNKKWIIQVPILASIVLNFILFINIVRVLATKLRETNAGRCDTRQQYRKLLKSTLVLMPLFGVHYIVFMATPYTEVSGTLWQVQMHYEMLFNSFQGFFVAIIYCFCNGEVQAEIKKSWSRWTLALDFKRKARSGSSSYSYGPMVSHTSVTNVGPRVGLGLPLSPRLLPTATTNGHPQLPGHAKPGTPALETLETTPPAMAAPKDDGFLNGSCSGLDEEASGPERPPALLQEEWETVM
The experiment in a line: Scatchard transformation of homologous competition binding, COS-7 cells. The method, then: (§1) The cells were subsequently lysed with 0.5 mL […] NaOH and counted for radioactivity. For each tracer and in each experiment, the non-specific binding was determined as the radioactivity that bound in the presence of the same unlabeled peptide at a concentration of 1 μM, and was ˜1% of total radioactivity added for each tracer. The maximum specific binding (B₀) was the total radioactivity bound in the absence of competing ligand, corrected for nonspecific binding, and for each tracer, ranged from 8% to 20% of the total radioactivity added. Nonlinear regression was used to calculate binding IC₅₀ values (see below). Scatchard transformations of homologous competition binding data derived from studies with 26 fmol of ¹²⁵I-[Aib^{1,3},M]PTH(1-21) were employed for estimations of apparent equilibrium dissociation constant (kDapps) and total number of ligand binding sites (Bₘₐₓ), assuming a single class of binding sites and equal affinities of the iodinated and non iodinated ligand.
(§2) To potentially improve affinity of this peptide, the paired Aib-1,3 modifications were introduced to produce [Aib^{1,3},M]PTH(1-21). […] The total specific binding observed in COS-7 cells tranfected with vector DNA alone was<2% of total radioactivity added. This radioligand, therefore, enabled competition binding experiments to be performed with both the wild-type and truncated PTH-1 receptors.

Assay [3] concerns the target T2, truncated human P1R deleted for …. The experiment in a line: Scatchard transformation of homologous competition binding, 125I-[Aib1,3,M]PTH(1-21) tracer, COS-7 cells expressing P1R-delNt. The method, then:
as §1, §2

Assay [4] concerns the target T1, wild-type human PTH/PTHrP receptor …. The experiment in a line: Scatchard transformation of homologous competition binding, 125I-[Aib1,3,M]PTH(1-21) tracer, COS-7 cells expressing P1R-WT. The method, then: as §1, §2

B1: [Aib^1,3,M]PTH(1-14) (peptide)
peptide: [Aib]V[Aib]EIQLMHQ[hArg]AKW-NH2
modifications: N-terminus assumed
SMILES: CC[C@H](C)[C@H](NC(=O)[C@H](CCC(=O)O)NC(=O)C(C)(C)NC(=O)[C@@H](NC(=O)C(C)(C)N)C(C)C)C(=O)N[C@@H](CCC(N)=O)C(=O)N[C@@H](CC(C)C)C(=O)N[C@@H](CCSC)C(=O)N[C@@H](Cc1c[nH]cn1)C(=O)N[C@@H](CCC(N)=O)C(=O)N[C@@H](CCCCNC(=N)N)C(=O)N[C@@H](C)C(=O)N[C@@H](CCCCN)C(=O)N[C@@H](Cc1c[nH]c2ccccc12)C(N)=O
notes: also called 671 [Aib^1,3, M]PTH (1-14); 671 [Aib^1,3M]PTH(1-14)
For the molecule B1, in assay [1], the “fold higher apparent affinity than [M]PTH(1-14)” value came out at 100 fold.

B2: [Aib^1,3,M]PTH(1-21) (peptide)
peptide: [Aib]V[Aib]EIQL[Nle]HQ[hArg]AKWLASVRRY-NH2
modifications: N-terminus assumed
SMILES: CCCC[C@H](NC(=O)[C@H](CC(C)C)NC(=O)[C@H](CCC(N)=O)NC(=O)[C@@H](NC(=O)[C@H](CCC(=O)O)NC(=O)C(C)(C)NC(=O)[C@@H](NC(=O)C(C)(C)N)C(C)C)[C@@H](C)CC)C(=O)N[C@@H](Cc1c[nH]cn1)C(=O)N[C@@H](CCC(N)=O)C(=O)N[C@@H](CCCCNC(=N)N)C(=O)N[C@@H](C)C(=O)N[C@@H](CCCCN)C(=O)N[C@@H](Cc1c[nH]c2ccccc12)C(=O)N[C@@H](CC(C)C)C(=O)N[C@@H](C)C(=O)N[C@@H](CO)C(=O)N[C@H](C(=O)N[C@@H](CCCNC(=N)N)C(=O)N[C@@H](CCCNC(=N)N)C(=O)N[C@@H](Cc1ccc(O)cc1)C(N)=O)C(C)C
notes: unlabeled peptide; also called 674 [Aib^1,3, M]PTH (1-21); 674 [Aib^1,3M]PTH(1-21)
Take B2: the “fold weaker affinity at P1R-delNt than at P1R-WT” value in assay [2] was below 2 fold. For the same molecule, the values for the Kd in assay [3] and in assay [4] were 29 nM and 17 nM, respectively.

The term Kd denotes the free concentration of one partner at which half of the binding sites on the other are occupied at equilibrium, for simple one-to-one binding. Read a high Kd as a looser complex.

Values taken from patent US20050026839A1 (GENERAL HOSPITAL, published 2005).
